Columns and labels:
canine NGF = molecular target: T1, canine NGF (canine, UniProt Q29074 110-229 (pig entry), limits assumed); experiment: SPR Biacore, NGF amine-coupled to chip
T1 construct: also called cNGF; canine β-NGF
T1 chain: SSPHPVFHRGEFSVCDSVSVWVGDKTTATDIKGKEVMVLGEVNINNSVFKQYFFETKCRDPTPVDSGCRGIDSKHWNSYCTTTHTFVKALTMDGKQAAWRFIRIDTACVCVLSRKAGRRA
Description: (§1) Antibody binding affinities of the antibodies against canine NGF were determined by surface plasmon resonance (SPR) on a Biacore system (Biocore Life Sciences (GE Healthcare), Uppsala, Sweden). Immobilization of canine and rat NGF were obtained by amine coupling 5 μg/mL NGF using N-hydroxysuccinimide (NHS)/1-Ethyl-3-(3-dimethylaminopropyl) carbodiimide (EDC) chemistry. Chips were quenched with ethanolamine and the affinity with which all candidate mAbs bound to the immobilized NGF was evaluated. Various concentrations of canine and felinized anti-NGF antibodies were injected over the NGF surfaces while the association of the antibody to the antigen and the dissociation of the formed complex were monitored in real time. Kinetic analysis was performed to obtain the equilibrium dissociation constant (KD).

rat NGF = molecular target: T2, rat NGF (rat, UniProt P25427 122-241); experiment: SPR Biacore, NGF amine-coupled to chip
T2 construct: Immobilised on the Biacore chip by amine coupling; also called rN
Description: as §1

T2 sequence (P25427 122-241 limits assumed): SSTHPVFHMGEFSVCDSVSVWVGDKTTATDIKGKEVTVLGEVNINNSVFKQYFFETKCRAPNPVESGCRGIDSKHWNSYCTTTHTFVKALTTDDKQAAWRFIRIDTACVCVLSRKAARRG

B1: fel48L2 chimera (antibody, V domains shown)
VH: EVQLVESGGDLVKPGGSLRLSCVASGFTFSTYGINWVRQAPGKGLQWVAYISSGGSSTYYADPVKGRFTISRDDAKNMLYLQMNSLRAEDTAIYYCAGSRYTYAYGGGYEFHFWGQGTLVTVSS
VL: QAVLNQPASVSGALGQKVTISCSGSTMDIDIFGVSWYQQLPGKAPKLLVDSDGDRPSGIPDRFSGSRSGNSGTLTITGLQAEDEADYHCQSGDSTLGALAIFGGGTHVTVLG
notes: Canine variable domains on feline constant regions
Canine NGF
  Kd: 6.25 pM
  koff: 2.64e-06 s⁻¹
  kon: 471000 M⁻¹ s⁻¹
Rat NGF
  Kd: 0.285 pM
  koff: 1.1e-07 s⁻¹
  kon: 387000 M⁻¹ s⁻¹
